Our source for the Kd values is patent US20040072162A1, “Hiv peptides and nucleic acids encoding them for diagnosis and control of hiv infection” (priority 2000, published 2004).

Broadly, the Kd is the constant that tells how readily two partners part at equilibrium. High values mean lower affinity, low ones higher affinity.

The target in the test is HLA-A2 MHC-I (HLA-A*0204, affinity purified from the EBV transformed cell line RML) (human).
The molecule LNFPISPI (modifications not checked) [8.115nat] registered a Kd of 29 nM.
The figure for WCFKLVPV (modifications not checked) [8.121nat] is 200 nM.
For the molecule VVAAIIAIV (modifications not checked) [8.1nat], the Kd was found to be 260 nM.
For the molecule NTVATLYCV (modifications not checked) [8.49nat], the Kd was found to be 170 nM.
For LCFGWCFKL (modifications not checked) [8.45natC] the value was 580 nM; for ALGIIQAQ (modifications not checked) [8.116nat], 97 nM; for FLWMGYELH (modifications not checked) [8.21nat], 445 nM.
As to RTLNAWVKV (modifications not checked) [8.54nat], the Kd is 170 nM.
With NIWATHACV (modifications not checked) [8.75natV], the Kd is 57 nM.
The figure for RLAFHHMAR (modifications not checked) [8.47nat] is 670 nM; for SLVKHHMYI (modifications not checked) [4.14 variant] it is 123 nM.
The molecule TLQEQIGWM (modifications not checked) [8.56nat] returned a Kd of 245 nM.
FLGAAGST (modifications not checked) [8.135nat] had a Kd of 870 nM.
LKTAVQMAV (modifications not checked) [8.33nat] yielded a Kd of 1330 nM.
In turn, SGGDPEIV (modifications not checked) [8.130nat] gave a Kd of 950 nM.
The figure for ILVESPAVL (modifications not checked) [8.16nat] is 13 nM; for KTKPPLPSV (modifications not checked) [8.10natT] it is 39 nM.
Regarding ALGPAATLE (modifications not checked) [8.64nat], the Kd was determined as 830 nM.
In turn, YIKIFIMIV (modifications not checked) [8.93nat] registered a Kd of 24 nM.
Take ATLEEMMTA (modifications not checked) [8.65nat]: the Kd came to 77 nM.
In the case of YLAWVPAHK (modifications not checked) [8.42nat], the Kd came to 200 nM.
As to GLADQLIHM (modifications not checked) [8.11natM], the Kd was found to be 135 nM.
In turn, AIEAQQHLL (modifications not checked) [8.88nat] came in with a Kd of 850 nM.
The molecule ALAALITPK (modifications not checked) [8.12nat] had a Kd of 62 nM.
For WLFKLVPV (modifications not checked) [8.121mod] the value was 183 nM.
In turn, LQLPPIERL (modifications not checked) [8.14nat] yielded a Kd of 7.3 nM.
The molecule SLVKHHMYV (modifications not checked) [4.14] displayed a Kd of 21 nM.
The molecule ALVEMGHHA (modifications not checked) [8.3nat] yielded a Kd of 160 nM.
The figure for GMGSPQILV (modifications not checked) [8.15natM (4.40)] is 120 nM; for TGNPPIPV (modifications not checked) [8.123natG] it is 700 nM.
